Test results taken from patent US20220267427A1.

Tests used:
[1] = target: fCK18 in apoptosis-induced HepG2 cell culture supernatant (human) (UniProt P05783); assay: commercial fCK18 kit ELISA with M30 conjugate; fCK18 182.28 ng/mL
[2] = target: fCK18 in apoptosis-induced HepG2 cell culture supernatant (human) (UniProt P05783); assay: commercial fCK18 kit ELISA with M30 conjugate; fCK18 20.27 ng/mL
[3] = target: fCK18 in apoptosis-induced HepG2 cell culture supernatant (human) (UniProt P05783); assay: commercial fCK18 kit ELISA with M30 conjugate; fCK18 0.28 ng/mL
[4] = target: fCK18 in apoptosis-induced HepG2 cell culture supernatant (human) (UniProt P05783); assay: commercial fCK18 kit ELISA with M30 conjugate; fCK18 60.73 ng/mL
[5] = target: fCK18 in apoptosis-induced HepG2 cell culture supernatant (human) (UniProt P05783); assay: commercial fCK18 kit ELISA with M30 conjugate; fCK18 6.79 ng/mL
[6] = target: fCK18 in apoptosis-induced HepG2 cell culture supernatant (human) (UniProt P05783); assay: commercial fCK18 kit ELISA with M30 conjugate; fCK18 0.09 ng/mL
[7] = target: fCK18 in apoptosis-induced HepG2 cell culture supernatant (human) (UniProt P05783); assay: commercial fCK18 kit ELISA with M30 conjugate; fCK18 0.74 ng/mL
[8] = target: fCK18 in apoptosis-induced HepG2 cell culture supernatant (human) (UniProt P05783); assay: commercial fCK18 kit ELISA with M30 conjugate; fCK18 2.23 ng/mL
[9] = target: fCK18 in apoptosis-induced HepG2 cell culture supernatant (human) (UniProt P05783); assay: commercial fCK18 kit ELISA with M30 conjugate

fCK18 in apoptosis-induced HepG2 cell culture supernatant (human), sequence (P05783 239-397): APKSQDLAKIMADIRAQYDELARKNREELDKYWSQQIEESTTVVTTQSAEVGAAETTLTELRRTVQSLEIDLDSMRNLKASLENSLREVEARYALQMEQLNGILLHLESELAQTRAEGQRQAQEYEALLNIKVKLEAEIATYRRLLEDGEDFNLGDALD

M30 antibody
S/N ratio [1]: 48.3
S/N ratio [2]: 12.8
S/N ratio [3]: 1.2
S/N ratio [4]: 37.5
S/N ratio [5]: 5.1
S/N ratio [6]: 1.1
S/N ratio [7]: 1.5
S/N ratio [8]: 2.4
fCK18 concentration detectable (S/N ratio of 2 or more) [9]: > 2.23 ng/mL
